Reference: paper PMC4735112, “The Functional Unit of Neisseria meningitidis 3-Deoxy-ᴅ-Arabino-Heptulosonate 7-Phosphate Synthase Is Dimeric” (PLoS ONE, 2016)

Columns and labels:
[1] = molecular target: Neisseria meningitidis 3-deoxy-D-arabino-heptulosonate 7-phosphate synthase, R126S variant (N. meningitidis) (UniProt Q9K169); experiment: crystal structure
[2] = molecular target: Neisseria meningitidis 3-deoxy-D-arabino-heptulosonate 7-phosphate synthase, R126S variant (N. meningitidis) (UniProt Q9K169); experiment: SEC
[3] = molecular target: Neisseria meningitidis 3-deoxy-D-arabino-heptulosonate 7-phosphate synthase, R126S variant (N. meningitidis) (UniProt Q9K169); experiment: AUC; sedimentation velocity, 20°C, 10 mM BTP pH 7.3, 100 mM KCl, 200 μM PEP; 0.2, 0.4 and 1.2 mg/mL; continuous size distribution model (SEDFIT)
[4] = molecular target: Neisseria meningitidis 3-deoxy-D-arabino-heptulosonate 7-phosphate synthase, R126S variant (N. meningitidis) (UniProt Q9K169); experiment: SAXS; SEC-coupled small angle X-ray scattering, 25°C, 10 mM BTP pH 7.5, 100 mM KCl, 200 μM PEP; initial 7 mg/mL (wild type) and 12 mg/mL (R126S) prior to SEC; CRYSOL fits to tetramer and tight dimer of the crystal structure

“Neisseria meningitidis 3-deoxy-D-arabino-heptulosonate 7-phosphate synthase, R126S variant (from UniProt Q9K169 1-351) (enzyme)” gave a stoichiometry N [1] of 4, a stoichiometry N [2] of 2 and a stoichiometry N [3] of 2. It also gave a stoichiometry N [4] of 2.
